Data: the supplement of paper PMC9732359
± gives the uncertainty stated by the source.

Assay: protein stability index of a GFP-peptide fusion (yeast GPS) (PSI 1-4); higher = more stable; sorted into four equal gates, so the index is relative within each strain
How it was run: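 Sequencing reads from sorted gates were used to score each peptide. The library consisted of tiled 17-residue yeast protein peptides fused downstream of GFP on a Cherry-expressing plasmid, pooled and carried in yeast. Mid-log cultures in leucine-free medium were split into four equal gates by GFP/Cherry ratio, and each gate's plasmids were PCR-amplified and Illumina-sequenced. The protein stability index adds up, over all gates, the read frequency multiplied by the gate number.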

Row | Sequence | protein stability index (doa10∆) | protein stability index (pdr5∆) | protein stability index (san1∆) | protein stability index (ubr1∆)
1 | TIRYPDPNIKVNDTVKI [RPS4A] | 2.48 ± 0.09 | 2.87 ± 0.097 | 2.75 ± 0.1 | 2.71 ± 0.066
2 | RVSLQDIKDFADKVYTK [QCR2] | 2.85 ± 0.069 | 3.07 ± 0.082 | 2.62 ± 0.079 | 2.67 ± 0.076
3 | MSEQQWREQLRNRDIAL [ROX3] | 2.98 ± 0.071 | 2.85 ± 0.056 | 3 ± 0.054 | 2.42 ± 0.048
4 | SGCENITDKTIESIVNL [GRR1] | 2.81 ± 0.13 | 2.94 ± 0.099 | 1.54 ± 0.19 | 2.98 ± 0.078
5 | EPEFHALSQSSLLKTKL [RRI1] | 2.15 ± 0.042 | 2.69 ± 0.039 | 2.39 ± 0.042 | 2.24 ± 0.037
6 | INKNSKIALREYINNCK [POP4] | 2.04 ± 0.23 | 2.17 ± 0.098 | 2.42 ± 0.11 | 1.73 ± 0.14
7 | VRIFTKIESEDDYILSG [SRB4] | – | – | – | 2.79 ± 0.092
8 | ARKSKEEREAAASKVKL [RPC53] | 3.16 ± 0.22 | – | – | –
9 | GINSPLSSVALRSDFYI [YJL039C/NUP192] | 2.45 ± 0.15 | 2.78 ± 0.12 | 2.96 ± 0.14 | 3.07 ± 0.15
10 | DQCKKQRRCLHCGALNG [RPO31] | 2.6 ± 0.14 | 2.71 ± 0.18 | 2.4 ± 0.11 | 2.57 ± 0.11
11 | DTDNECVAAWGVCNHAF [HRT1] | 3.25 ± 0.095 | 3.3 ± 0.059 | 3.33 ± 0.054 | 3.15 ± 0.05
12 | IKKIVADLKKGKDLSPA [QCR2] | 3.5 ± 0.24 | 3.15 ± 0.2 | 3.11 ± 0.26 | –
13 | TPRDRRKSVFAPLNFNP [SSN2] | 2.68 ± 0.066 | 2.57 ± 0.063 | 2.95 ± 0.081 | 2.86 ± 0.045
14 | DAHGVTQARVITGNKIM [RPS13] | 2.21 ± 0.088 | 1.61 ± 0.071 | 1.22 ± 0.12 | 1.56 ± 0.062
15 | NKASLAQYEVLANYLTS [QCR2] | 2.42 ± 0.063 | 2.41 ± 0.051 | 2.5 ± 0.075 | 2.64 ± 0.081
16 | QVVTTVASQSPHATATE [SNF6] | 2.56 ± 0.11 | 2.88 ± 0.079 | 2.6 ± 0.096 | 2.79 ± 0.047
17 | DVQARRQFVSNVRSVIR [RPP1] | 2.02 ± 0.15 | 2.5 ± 0.12 | 1.65 ± 0.23 | 2.44 ± 0.13
18 | KPSKPFNVDDVLKFTFT [MED8] | 3.1 ± 0.061 | 2.83 ± 0.051 | 3.03 ± 0.034 | 2.74 ± 0.039
19 | EKIMILLVPLALLTKRL [CSN12] | 1.95 ± 0.045 | 1.47 ± 0.04 | 1.33 ± 0.069 | 1.3 ± 0.03
20 | AFFTYDAGVTFNKEQLN [ECM29] | 2.07 ± 0.052 | 3.08 ± 0.1 | 2.63 ± 0.083 | 2.58 ± 0.061
21 | HVLYKESKGNAFKHKRA [RPL19A] | 2.97 ± 0.079 | 2.49 ± 0.12 | 2.59 ± 0.08 | 2.46 ± 0.044
22 | SMSEEFKYVSVRYEEKR [BRR2] | 3.41 ± 0.2 | 3.38 ± 0.14 | 3.12 ± 0.22 | –
23 | YWQFNGVIALGQFVTLG [RMP1] | 3.23 ± 0.094 | 2.79 ± 0.086 | 2.11 ± 0.086 | 2.91 ± 0.055
24 | IYLLFQSSGKLKEYLDL [YDL116W/NUP84] | 2.51 ± 0.051 | 2.44 ± 0.052 | 2.52 ± 0.048 | 2.6 ± 0.038
25 | LTYKSELSKSRALQENG [YMR153W/NUP53] | 1.89 ± 0.063 | 1.95 ± 0.041 | 2.01 ± 0.085 | 1.87 ± 0.034
26 | LLIGCKLDQDDEIYIPI [CSI1] | – | 3.12 ± 0.18 | 3.01 ± 0.084 | 3.09 ± 0.11
27 | ETLKRDRKQSQATNATN [ARP7] | 2.69 ± 0.074 | 2.86 ± 0.082 | 2.39 ± 0.11 | 2.74 ± 0.068

Row | Sequence | protein stability index (doa10∆) | protein stability index (pdr5∆) | protein stability index (san1∆) | protein stability index (ubr1∆)
28 | MGGIREKKAEYFAKLRE [RPP0] | 3.48 ± 0.081 | 3.37 ± 0.082 | 3.13 ± 0.061 | 3.55 ± 0.095
29 | AAEKSFKPPKNKYKVVR [SEC65] | 3 ± 0.28 | 3.08 ± 0.19 | 3.05 ± 0.12 | 3.15 ± 0.12
30 | LGWDLDAIIPFAAIPEQ [FAS2] | 2.6 ± 0.28 | 3.14 ± 0.15 | – | 3.15 ± 0.16
31 | KSDEAKWKPVLSHIVYF [RPN5] | 2.29 ± 0.067 | 2.21 ± 0.062 | 2.23 ± 0.058 | 2.03 ± 0.047
32 | TFQRVCQYMVACVPLLP [RPN1] | 2.5 ± 0.06 | 2.42 ± 0.071 | 1.86 ± 0.14 | 2.53 ± 0.1
33 | NLQREIDQAHVSEITKL [RPN14] | 2.61 ± 0.044 | 2.81 ± 0.058 | 2.75 ± 0.054 | 2.69 ± 0.05
34 | GAGSAFGFSSSGTAATG [YOR098C/NUP1] | 3.47 ± 0.2 | 3.41 ± 0.15 | 3.41 ± 0.17 | 3.57 ± 0.14
35 | ISIFSTPGSVSLSAYNL [PRP8] | 2.61 ± 0.24 | 2.46 ± 0.09 | – | 1.81 ± 0.22
36 | MQSTSPAVKQWDLLPEP [SWI1] | 2.73 ± 0.19 | 1.5 ± 0.11 | 1.36 ± 0.27 | 1.07 ± 0.14
37 | RQQKLLEDQQRQQKLLL [SWI1] | 3.2 ± 0.12 | 3.05 ± 0.062 | 3.03 ± 0.077 | 3.25 ± 0.069
38 | EWDLYPQGFSSVERGRK [REC8] | 3.41 ± 0.13 | 3.54 ± 0.14 | 3.44 ± 0.086 | 3.48 ± 0.12
39 | VHMYHKSLALLGYNFDG [SNF5] | 2.26 ± 0.059 | 1.78 ± 0.046 | 2.02 ± 0.08 | 2.02 ± 0.05
40 | LMSCISVGTDPMPIITF [RPB2] | 2.26 ± 0.086 | 1.71 ± 0.056 | 2.28 ± 0.05 | 2.18 ± 0.054
41 | GFINQKNLKPQEQLKNV [YIL149C/MLP2] | 3.09 ± 0.11 | 2.84 ± 0.081 | 2.77 ± 0.062 | 2.9 ± 0.068
42 | RLKGDIFCVGSGQTFAY [PRE2] | 2.39 ± 0.05 | 1.77 ± 0.041 | 2.25 ± 0.019 | 1.79 ± 0.044
43 | TPANTNNSTSNANTVFS [SWI1] | 2.5 ± 0.057 | 2.75 ± 0.047 | 2.66 ± 0.04 | 2.931 ± 0.028
44 | AASLIMPFLDNQVNFKN [PRE7] | – | 2.7 ± 0.081 | 1.31 ± 0.17 | 1.39 ± 0.093
45 | QQIQEQVLKCKESWDPN [YGR119C/NUP57] | 3.3 ± 0.17 | – | 3.33 ± 0.25 | 3.52 ± 0.22
46 | REAYIENFAKGEHISAI [SWP82] | 2.98 ± 0.07 | 3.11 ± 0.089 | 2.99 ± 0.061 | 3.07 ± 0.067
47 | SGEDAEEELWNSPSKGN [YIL149C/MLP2] | 3.15 ± 0.13 | 3.25 ± 0.084 | 3.28 ± 0.058 | 3.21 ± 0.065
48 | QFTSSLFKALKVILNER [RGR1] | 2.03 ± 0.11 | 2.4 ± 0.069 | 1.83 ± 0.1 | 2.42 ± 0.077
49 | GPIKTPVGACATSVESV [FAS2] | 1.39 ± 0.073 | 2.13 ± 0.12 | 2.15 ± 0.11 | 2.22 ± 0.077
50 | VLPIFTTVFFSRQKSGL [YML031W/NDC1] | 1.53 ± 0.075 | 1.24 ± 0.082 | 1.14 ± 0.095 | 1.11 ± 0.077
51 | DYVNKTNSHLPAGKQVE [FAS1] | 3.16 ± 0.098 | 3.57 ± 0.24 | 3.08 ± 0.13 | 3.08 ± 0.11
52 | TPEMNVTNNVEEGEFII [TAF14] | – | 2.43 ± 0.26 | – | 3.62 ± 0.22
53 | GLKRSQLDEFKNKYLKD [SWP82] | 3.11 ± 0.13 | 2.89 ± 0.21 | 2.89 ± 0.12 | 2.69 ± 0.17
